Experimental findings from the supplement of paper PMC10567573 are described below.

Sequences and labels used below:
B1: PDZK1 (parent)
chain: RETASLKLLPHQPRIVEMKKGSNG
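Also: lentivirally expressed fusions sorted by FACS into six bins by GFP to DsRed ratio, PSI derived from sequencing read proportions per bin multiplied by bin number.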

In the data set the parent is B1. Put plainly: protein stability index of a GFP-peptide fusion (GPS, HEK-293T) (PSI 1-6); higher = more stable. As to conditions: c terminus: a fixed tail appended.
Regarding RETASLKLLPHQPRIVFMKKGSNG [E17F], the protein stability index is 2.81.
The figure for RETASLKLLPHQPRIVRMKKGSNG [E17R] is 4.02; for RETASLKLLPHQPRIVLMKKGSNG [E17L] it is 2.66.
For RETASLKLLPHQPRIVTMKKGSNG [E17T] the value was 3.86; for RETASLKLLPHQPRIVHMKKGSNG [E17H], 3.67.
For RETASLKLLPHQPRIVDMKKGSNG [E17D] the value was 4.08; for RETASLKLLPHQPRIVNMKKGSNG [E17N], 4.28.
With RETASLKLLPHQPRIVIMKKGSNG [E17I], the protein stability index turned out to be 2.42.
For RETASLKLLPHQPRIVWMKKGSNG [E17W], the protein stability index was found to be 2.7.
In the case of RETASLKLLPHQPRIVQMKKGSNG [E17Q], the protein stability index was 2.92.
The figure for RETASLKLLPHQPRIVVMKKGSNG [E17V] is 3.21.
For RETASLKLLPHQPRIVEDKKGSNG [M18D] the value was 5.3; for RETASLKLLPHQPRIVEPKKGSNG [M18P], 4.58; for RETASLKLLPHQPRIVECKKGSNG [M18C], 4.33.
RETASLKLLPHQPRIVELKKGSNG [M18L]: the protein stability index was 4.15.
Regarding RETASLKLLPHQPRIVEQKKGSNG [M18Q], the protein stability index was determined as 4.58.
For RETASLKLLPHQPRIVESKKGSNG [M18S] the value was 4.79.
In the case of RETASLKLLPHQPRIVEHKKGSNG [M18H], the protein stability index is 4.44.
For RETASLKLLPHQPRIVEWKKGSNG [M18W] the value was 3.53.
For RETASLKLLPHQPRIVEVKKGSNG [M18V] the value was 3.86; for RETASLKLLPHQPRIVERKKGSNG [M18R], 4.93.
In the case of RETASLKLLPHQPRIVEEKKGSNG [M18E], the protein stability index worked out at 5.25.
For RETASLKLLPHQPRIVEKKKGSNG [M18K] the value was 4.56; for RETASLKLLPHQPRIVEFKKGSNG [M18F], 4.
The figure for RETASLKLLPHQPRIVEIKKGSNG [M18I] is 4.21; for RETASLKLLPHQPRIVEAKKGSNG [M18A] it is 4.51.
For RETASLKLLPHQPRIVETKKGSNG [M18T] the value was 4.85.
For RETASLKLLPHQPRIVEYKKGSNG [M18Y], the protein stability index turned out to be 3.91.
The figure for RETASLKLLPHQPRIVEMEKGSNG [K19E] is 3.94.
The figure for RETASLKLLPHQPRIVEMRKGSNG [K19R] is 2.63; for RETASLKLLPHQPRIVEMCKGSNG [K19C] it is 2.29.
For RETASLKLLPHQPRIVEMTKGSNG [K19T] the value was 2.61; for RETASLKLLPHQPRIVEMWKGSNG [K19W], 3.14.
In the case of RETASLKLLPHQPRIVEMSKGSNG [K19S], the protein stability index was determined as 3.49.
The figure for RETASLKLLPHQPRIVEMIKGSNG [K19I] is 2.77; for RETASLKLLPHQPRIVEMLKGSNG [K19L] it is 2.79; for RETASLKLLPHQPRIVEMDKGSNG [K19D] it is 4.35.
For the variant RETASLKLLPHQPRIVEMPKGSNG [K19P], the protein stability index is 4.52.
For RETASLKLLPHQPRIVEMGKGSNG [K19G] the value was 4.83; for RETASLKLLPHQPRIVEMHKGSNG [K19H], 2.65.
For the variant RETASLKLLPHQPRIVEMVKGSNG [K19V], the protein stability index amounted to 2.39.
The figure for RETASLKLLPHQPRIVEMAKGSNG [K19A] is 3.55; for RETASLKLLPHQPRIVEMNKGSNG [K19N] it is 3.28; for RETASLKLLPHQPRIVEMYKGSNG [K19Y] it is 2.2.
Consider RETASLKLLPHQPRIVEMKKFSNG [G21F], for which the protein stability index stood at 2.64.
The figure for RETASLKLLPHQPRIVEMKKTSNG [G21T] is 2.25; for RETASLKLLPHQPRIVEMKKKSNG [G21K] it is 3.74.
For the variant RETASLKLLPHQPRIVEMKKRSNG [G21R], the protein stability index is 3.9.
The figure for RETASLKLLPHQPRIVEMKKCSNG [G21C] is 2.58; for RETASLKLLPHQPRIVEMKKLSNG [G21L] it is 1.83; for RETASLKLLPHQPRIVEMKKESNG [G21E] it is 4.29.
Consider RETASLKLLPHQPRIVEMKKWSNG [G21W], for which the protein stability index worked out at 2.6.
For RETASLKLLPHQPRIVEMKKDSNG [G21D] the value was 4.48; for RETASLKLLPHQPRIVEMKKNSNG [G21N], 3.43; for RETASLKLLPHQPRIVEMKKVSNG [G21V], 3.56.
The figure for RETASLKLLPHQPRIVEMKKASNG [G21A] is 2.67.
As to RETASLKLLPHQPRIVEMKKPSNG [G21P], the protein stability index is 3.77.
For RETASLKLLPHQPRIVEMKKYSNG [G21Y] the value was 2.13.
As for RETASLKLLPHQPRIVEMKKSSNG [G21S], the protein stability index came to 3.37.
For RETASLKLLPHQPRIVEMKKISNG [G21I] the value was 3.23; for RETASLKLLPHQPRIVEMKKMSNG [G21M], 2.22.
For RETASLKLLPHQPRIVEMKKQSNG [G21Q] the value was 2.92; for RETASLKLLPHQPRIYEMKKGSNG [V16Y], 3.68.
The figure for RETASLKLLPHQPRIVEMKKGFNG [S22F] is 2.47; for RETASLKLLPHQPRIVEMKKGCNG [S22C] it is 3.25; for RETASLKLLPHQPRIVEMKKGLNG [S22L] it is 3.03.
As for RETASLKLLPHQPRIVEMKKGDNG [S22D], the protein stability index was found to be 4.55.
The figure for RETASLKLLPHQPRIVEMKKGNNG [S22N] is 4.09; for RETASLKLLPHQPRIVEMKKGVNG [S22V] it is 4.
Turning to RETASLKLLPHQPRIVEMKKGYNG [S22Y], the protein stability index was found to be 2.61.
For RETASLKLLPHQPRIVEMKKGENG [S22E] the value was 4.54; for RETASLKLLPHQPRIVEMKKGGNG [S22G], 4.28.
For RETASLKLLPHQPRIVEMKKGQNG [S22Q] the value was 3.88.
For RETASLKLLPHQPRIVEMKKGTNG [S22T] the value was 3.51; for RETASLKLLPHQPRIVEMKKGKNG [S22K], 4.03; for RETASLKLLPHQPRIVEMKKGMNG [S22M], 3.85.
Turning to RETASLKLLPHQPRIVEMKKGING [S22I], the protein stability index stood at 3.38.
Regarding RETASLKLLPHQPRIVEMKKGPNG [S22P], the protein stability index was 3.33.
For RETASLKLLPHQPRIVEMKWGSNG [K20W] the value was 2.48; for RETASLKLLPHQPRIVEMKHGSNG [K20H], 4.4.
RETASLKLLPHQPRIVEMKFGSNG [K20F]: the protein stability index came to 3.
For RETASLKLLPHQPRIVEMKNGSNG [K20N] the value was 4.28; for RETASLKLLPHQPRIVEMKQGSNG [K20Q], 4.06.
For RETASLKLLPHQPRIVEMKAGSNG [K20A] the value was 3.46; for RETASLKLLPHQPRIVEMKTGSNG [K20T], 3.51.
Take RETASLKLLPHQPRIVEMKIGSNG [K20I]: the protein stability index is 3.41.
Consider RETASLKLLPHQPRIVEMKVGSNG [K20V], for which the protein stability index amounted to 3.7.
The figure for RETASLKLLPHQPRIVEMKGGSNG [K20G] is 4.14.
For RETASLKLLPHQPRIVEMKPGSNG [K20P] the value was 3.99.
The figure for RETASLKLLPHQPRIVEMKCGSNG [K20C] is 3.65; for RETASLKLLPHQPRIVEMKEGSNG [K20E] it is 4.87; for RETASLKLLPHQPRIVEMKYGSNG [K20Y] it is 3.62.
Turning to RETASLKLLPHQPRIVEMKLGSNG [K20L], the protein stability index was found to be 3.61.
The figure for RETASLKLLPHQPRIVEMKMGSNG [K20M] is 3.57.
